To fix the notation:
B1: WDFY1 (parent)
chain: FWNIKQMWDTKTLGLRQHHCRKCG
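Further: lentivirally expressed fusions sorted by FACS into six bins by GFP to DsRed ratio, PSI derived from sequencing read proportions per bin multiplied by bin number.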

In this data set the parent is B1. Briefly: protein stability index of a GFP-peptide fusion (GPS, HEK-293T) (PSI 1-6); higher = more stable. Conditions: c terminus: a fixed tail appended.
Regarding FGNIKQMWDTKTLGLRQHHCRKCG [W2G], the protein stability index is 1.47. Consider FCNIKQMWDTKTLGLRQHHCRKCG [W2C], for which the protein stability index amounted to 1.14. With FHNIKQMWDTKTLGLRQHHCRKCG [W2H], the protein stability index amounted to 1.43. The same measure for FENIKQMWDTKTLGLRQHHCRKCG [W2E]: 2.53; for FINIKQMWDTKTLGLRQHHCRKCG [W2I]: 2.41. The figure for FSNIKQMWDTKTLGLRQHHCRKCG [W2S] is 1.62. For FQNIKQMWDTKTLGLRQHHCRKCG [W2Q], the protein stability index was 1.75. The same measure for FFNIKQMWDTKTLGLRQHHCRKCG [W2F]: 2.55; for FPNIKQMWDTKTLGLRQHHCRKCG [W2P]: 2.32; for FKNIKQMWDTKTLGLRQHHCRKCG [W2K]: 2.29. Consider FNNIKQMWDTKTLGLRQHHCRKCG [W2N], for which the protein stability index worked out at 2.46. As to FMNIKQMWDTKTLGLRQHHCRKCG [W2M], the protein stability index came out at 2.32. Take FYNIKQMWDTKTLGLRQHHCRKCG [W2Y]: the protein stability index is 2.74.

On to FRNIKQMWDTKTLGLRQHHCRKCG [W2R], for which the protein stability index was determined as 2.82.

On to FLNIKQMWDTKTLGLRQHHCRKCG [W2L], for which the protein stability index was 2.47. In the case of FVNIKQMWDTKTLGLRQHHCRKCG [W2V], the protein stability index came out at 2.71. As for FDNIKQMWDTKTLGLRQHHCRKCG [W2D], the protein stability index came out at 2.19.

For FANIKQMWDTKTLGLRQHHCRKCG [W2A], the protein stability index worked out at 2.24.

FWHIKQMWDTKTLGLRQHHCRKCG [N3H]: the protein stability index amounted to 1.85.

Regarding FWFIKQMWDTKTLGLRQHHCRKCG [N3F], the protein stability index amounted to 1.96. Regarding FWCIKQMWDTKTLGLRQHHCRKCG [N3C], the protein stability index was found to be 2.56. The same measure for FWIIKQMWDTKTLGLRQHHCRKCG [N3I]: 1.5; for FWDIKQMWDTKTLGLRQHHCRKCG [N3D]: 2.02. The figure for FWWIKQMWDTKTLGLRQHHCRKCG [N3W] is 2.85; for FWRIKQMWDTKTLGLRQHHCRKCG [N3R] it is 2.13. For FWQIKQMWDTKTLGLRQHHCRKCG [N3Q], the protein stability index amounted to 1.96. With FWYIKQMWDTKTLGLRQHHCRKCG [N3Y], the protein stability index is 2.37. For FWSIKQMWDTKTLGLRQHHCRKCG [N3S], the protein stability index is 1.61. Take FWPIKQMWDTKTLGLRQHHCRKCG [N3P]: the protein stability index worked out at 2.57. Turning to FWAIKQMWDTKTLGLRQHHCRKCG [N3A], the protein stability index amounted to 1.56. The figure for FWEIKQMWDTKTLGLRQHHCRKCG [N3E] is 2.05; for FWKIKQMWDTKTLGLRQHHCRKCG [N3K] it is 1.41; for FWLIKQMWDTKTLGLRQHHCRKCG [N3L] it is 1.54. In the case of FWMIKQMWDTKTLGLRQHHCRKCG [N3M], the protein stability index is 2.23. As to FWGIKQMWDTKTLGLRQHHCRKCG [N3G], the protein stability index came to 2.17. Take FWTIKQMWDTKTLGLRQHHCRKCG [N3T]: the protein stability index worked out at 1.23. As for FWVIKQMWDTKTLGLRQHHCRKCG [N3V], the protein stability index was found to be 1.27. In the case of LWNIKQMWDTKTLGLRQHHCRKCG [F1L], the protein stability index came out at 1.62. Take TWNIKQMWDTKTLGLRQHHCRKCG [F1T]: the protein stability index was found to be 2.28. On to NWNIKQMWDTKTLGLRQHHCRKCG [F1N], for which the protein stability index amounted to 2.76. Turning to DWNIKQMWDTKTLGLRQHHCRKCG [F1D], the protein stability index was 2.79.

For VWNIKQMWDTKTLGLRQHHCRKCG [F1V], the protein stability index is 1.97. For CWNIKQMWDTKTLGLRQHHCRKCG [F1C], the protein stability index is 2.65. With SWNIKQMWDTKTLGLRQHHCRKCG [F1S], the protein stability index amounted to 2.46.

Consider KWNIKQMWDTKTLGLRQHHCRKCG [F1K], for which the protein stability index amounted to 2.45.

For the variant EWNIKQMWDTKTLGLRQHHCRKCG [F1E], the protein stability index amounted to 2.61.

Take HWNIKQMWDTKTLGLRQHHCRKCG [F1H]: the protein stability index was 2.36. The same measure for IWNIKQMWDTKTLGLRQHHCRKCG [F1I]: 1.91; for WWNIKQMWDTKTLGLRQHHCRKCG [F1W]: 2.16. The figure for RWNIKQMWDTKTLGLRQHHCRKCG [F1R] is 1.54; for GWNIKQMWDTKTLGLRQHHCRKCG [F1G] it is 2.3. The figure for QWNIKQMWDTKTLGLRQHHCRKCG [F1Q] is 2.31. Turning to YWNIKQMWDTKTLGLRQHHCRKCG [F1Y], the protein stability index amounted to 2.02. For the variant MWNIKQMWDTKTLGLRQHHCRKCG [F1M], the protein stability index was 2.98. As to PWNIKQMWDTKTLGLRQHHCRKCG [F1P], the protein stability index was 2.29. As for AWNIKQMWDTKTLGLRQHHCRKCG [F1A], the protein stability index stood at 2.11.

In the case of FWNIKQTWDTKTLGLRQHHCRKCG [M7T], the protein stability index amounted to 1.69. The figure for FWNIKQYWDTKTLGLRQHHCRKCG [M7Y] is 2.45; for FWNIKQCWDTKTLGLRQHHCRKCG [M7C] it is 2.06.

Consider FWNIKQLWDTKTLGLRQHHCRKCG [M7L], for which the protein stability index was determined as 2.39. The same measure for FWNIKQFWDTKTLGLRQHHCRKCG [M7F]: 1.77; for FWNIKQGWDTKTLGLRQHHCRKCG [M7G]: 1.89; for FWNIKQSWDTKTLGLRQHHCRKCG [M7S]: 2.39. The same measure for FWNIKQVWDTKTLGLRQHHCRKCG [M7V]: 1.64; for FWNIKQWWDTKTLGLRQHHCRKCG [M7W]: 1.96; for FWNIKQAWDTKTLGLRQHHCRKCG [M7A]: 1.89.

In the case of FWNIKQDWDTKTLGLRQHHCRKCG [M7D], the protein stability index worked out at 2.54. Regarding FWNIKQEWDTKTLGLRQHHCRKCG [M7E], the protein stability index stood at 2.48. As for FWNIKQIWDTKTLGLRQHHCRKCG [M7I], the protein stability index was 2.15.

With FWNIKQHWDTKTLGLRQHHCRKCG [M7H], the protein stability index stood at 2.9. The figure for FWNIKQQWDTKTLGLRQHHCRKCG [M7Q] is 2.92. For FWNIKQPWDTKTLGLRQHHCRKCG [M7P], the protein stability index is 1.95. As for FWNIKQKWDTKTLGLRQHHCRKCG [M7K], the protein stability index came to 2.35. As to FWNIKQRWDTKTLGLRQHHCRKCG [M7R], the protein stability index is 2.58.

In the case of FWNIKQNWDTKTLGLRQHHCRKCG [M7N], the protein stability index was found to be 2.46. Consider FWNIYQMWDTKTLGLRQHHCRKCG [K5Y], for which the protein stability index turned out to be 1.36. As to FWNIMQMWDTKTLGLRQHHCRKCG [K5M], the protein stability index was 1.87. For the variant FWNIAQMWDTKTLGLRQHHCRKCG [K5A], the protein stability index came out at 1.97. On to FWNILQMWDTKTLGLRQHHCRKCG [K5L], for which the protein stability index worked out at 1.07. The same measure for FWNIEQMWDTKTLGLRQHHCRKCG [K5E]: 2.43; for FWNIDQMWDTKTLGLRQHHCRKCG [K5D]: 2.27; for FWNIHQMWDTKTLGLRQHHCRKCG [K5H]: 2.03.

Turning to FWNIRQMWDTKTLGLRQHHCRKCG [K5R], the protein stability index came out at 1.82.

For the variant FWNITQMWDTKTLGLRQHHCRKCG [K5T], the protein stability index was found to be 1.97. For the variant FWNIIQMWDTKTLGLRQHHCRKCG [K5I], the protein stability index stood at 2.15.

In the case of FWNIFQMWDTKTLGLRQHHCRKCG [K5F], the protein stability index was determined as 2.33. Turning to FWNICQMWDTKTLGLRQHHCRKCG [K5C], the protein stability index was 1.79. For FWNIVQMWDTKTLGLRQHHCRKCG [K5V], the protein stability index turned out to be 1.69. As to FWNIWQMWDTKTLGLRQHHCRKCG [K5W], the protein stability index was 2.11.

As to FWNIGQMWDTKTLGLRQHHCRKCG [K5G], the protein stability index stood at 1.96. FWNISQMWDTKTLGLRQHHCRKCG [K5S]: the protein stability index was 1.72. With FWNINQMWDTKTLGLRQHHCRKCG [K5N], the protein stability index stood at 2.28. FWNIQQMWDTKTLGLRQHHCRKCG [K5Q]: the protein stability index turned out to be 2.03. The figure for FWNIPQMWDTKTLGLRQHHCRKCG [K5P] is 2.17.

Values taken from the supplement of paper PMC10567573.
